{"source": "patent US20200308299A1", "about": "“ANTI-GPC-1 ANTIBODY” (National University Corporation Kochi University, priority 2017, published 2020)", "molecules": {"B1": {"name": "clone 01a033 (antibody)", "heavy": "QVQLKQSGPELVKPGASVKISCKASGYSFTGYYMHWVKQSPEKSLEWIGEINPSTGDTTYNQKFKAKATLTVDKSSSTAYMQLKSLTSEDSAVYYCAREKRDDGVFAYWGQGTLVTVSSAKTTAPSVYPLAPVCGDTTGSSVTLGCLVKGYFPEPVTLTWNSGSLSSGVHTFPAVLQSDLYTLSSSVTVTSSTWPSQSITCNVAHPASSTKVDKKIEPRGPTIKPCPPCKCPAPNLLGGPSVFIFPPKIKDVLMISLSPIVTCVVVDVSEDDPDVQISWFVNNVEVHTAQTQTHREDYNSTLRVVSALPIQHQDWMSGKEFKCKVNNKDLPAPIERTISKPKGSVRAPQVYVLPPPEEEMTKKQVTLTCMVTDFMPEDIYVEWTNNGKTELNYKNTEPVLDSDGSYFMYSKLRVEKKNWVERNSYSCSVVHEGLHNHHTTKSFSRTPGK", "light": "DIVMSQSPKSMSMSVGERVALSCKASENVGTYVSWYQQKPEQSPKLLIYGASNRYTGVPDRFTGSGSATDFTLTISSVQAEDLADYYCGQSYSYPLTFGAGTKLELKRADAAPTVSIFPPSSEQLTSGGASVVCFLNNFYPKDINVKWKIDGSERQNGVLNSWTDQDSKDSTYSMSSTLTLTKDEYERHNSYTCEATHKTSTSPIVKSFNRNEC"}, "B2": {"name": "GPC1 ADC (conjugate)", "heavy": "B1 heavy", "light": "B1 light"}}, "key": {"DU145 cells": {"tested_on": "DU145 cells", "experiment": "ADC assay combining anti-GPC-1 antibody and MMAF binding secondary antibody in DU145 cells", "type": "cell-based"}, "[1]": {"experiment": "Safety test on anti-GPC1 antibody 01a033 using mice", "type": "in vivo, mouse", "conditions": "1 mg/body ip, C57BL/6J mice, day 7", "protocol": "The following items were evaluated on day 7.\nBlood collection endpoints: WBC, RBC, Hb, Plt, T-Bil, ALT, ALP, Amy, BUN, Cr, Ca, P, TP, Alb, Na, K, Glob, and Glu, automatic blood cell counter: VetScan HMII, animal biochemical blood analyzer: VetScan VS2."}, "TE8 cells": {"tested_on": "TE8 cells", "experiment": "ADC assay combining anti-GPC-1 antibody and MMAF binding secondary antibody, TE8 cells", "type": "cell-based", "conditions": "primary antibody plus MMAF secondary antibody"}, "[2]": {"tested_on": "TE4, TE5, TE6, TE8, TE9, TE10, TE11, TE14, TE15, HeLa, ME180", "experiment": "In vitro antitumor effect of unlabeled antibody (CellTiter-Glo)", "type": "cell-based", "conditions": "6 days", "protocol": "2000 cells were added to a 96-well plate at 90 μl. The cells were cultured overnight at 37° C. in a 5% CO2 incubator. The next day, 10 μl of an unlabeled primary antibody concentrated […] relative to the final concentration was added to each well, so that the total amount was 100 μl. The cells were cultured for 6 days at 37° C. in a 5% CO2 incubator. The cell viability was measured by using a CellTiter-Glo Luminescent Cell Viability Assay reagent to detect the amount of ATP."}, "HeLa cells": {"tested_on": "HeLa cells", "experiment": "In vitro ADC assay, HeLa cells", "type": "cell-based", "conditions": "144 hours", "protocol": "(§1) Preparation of a conjugate of mouse anti-Glypican-1 mAb (01a033), mouse IgG2a (biolegend #400224) as a control, and mc-vc-PAB-MMAF was commissioned to MORADEC. An anticancer agent was conjugated to a cysteine residue via a cleavable linker. The DAR (drug-antibody ratio) was as follows. GPC1-CL-MMAF DAR=3.8, mouse IgG2a-CL-MMAF DAR=4.1.\n(§2) (1) The cells were seeded on Thermo Fisher Scientific's 96-well white plate (model no.: 136101) (90 μl cell suspension). RPMI1640+10% FBS+100 U/ml penicillin+100 μg/ml streptomycin was used as the medium. The cells were seeded in 60 wells, and 100 μL of medium was added to 36 wells, and cultured in a 5% CO2 incubator at 37° C. (2) The next day, 10 μL of ADC was added to the cells (total amount: 100 μL). (3) After 144 hours of culture, a CellTiter-Glo™ Luminescence Cell Viability Assay reagent (Promega) was added and mixed at 100 μL/well. (4) Measurements were taken with a plate reader. (5) Analysis was conducted with GraphPad Prism 6.\n(§3) The IC50 values were calculated from the following equation (Hossain M M, Hosono-Fukao T, Tang R, Sugaya N, van Kuppevelt T H, Jenniskens G J, Kimata K, Rosen S D, Uchimura K (2010) Direct detection of HSulf-1 and HSulf-2 activities on extracellular heparan sulphate and their inhibition by PI-88. Glycobiology 20(2): 175-186.)\n(§4) IC50=10^(Log [A][B]×(50−C)/(D−C)+Log [B]) […]"}, "ME180 cell strain": {"tested_on": "ME180 cell strain", "experiment": "In vivo efficacy test on GPC1 ADC using cervical cancer cell strain ME180 in SCID mice", "set-up": "species or system mouse", "protocol": "Specifically, 1.0×10^6 cells of ME180 cell strain were subcutaneously grafted into female SCID mice. […] The tumor volume and body weight were measured on day 0, day 4, day 8, day 12, day 16, day 20, day 24, day 28, and day 32.\nAfter subcutaneous tumorigenesis of ME180, (1) PBS, (2) control ADC at 10 mg/kg, and (3) GPC1-ADC at 10 mg/kg were administered once into the tail vein. The tumor was extracted after 24 hours. After deparaffinization of a section of a paraffin embedded tissue, the slice was dehydrated with alcohol. Immunohistochemical staining on Phospho-Histon H3 (Ser10) was performed by using an anti-Phospho-Histon H3 (Ser10) antibody (Cell Signaling Technology: #9701) and ChemMate Envision kit HRP 500T (Dako: K5007)."}, "T3M4 cells": {"tested_on": "T3M4 cells", "experiment": "In vitro ADC assay, T3M4 cells", "type": "cell-based, human", "conditions": "T3M4, 144 hours", "protocol": "as §1, §2, §3, §4"}, "[3]": {"tested_on": "GPC1 positive esophageal cancer cell strains (TE4, TE5, TE6, TE8, TE9, TE10, TE11, TE14, TE15)", "experiment": "In vitro ADC assay, GPC1 positive esophageal cancer cell strains", "type": "cell-based", "conditions": "144 hours of culture", "protocol": "as §1, §2, §3, §4"}, "BxPC3 cell strain": {"tested_on": "BxPC3 cell strain", "experiment": "In vivo efficacy test on GPC1 ADC using pancreatic cancer cell strain BxPC3 in SCID mice", "set-up": "species or system mouse", "protocol": "Specifically, 5.0×10^6 cells of the BxPC3 cell strain were subcutaneously grafted into female SCID mice. […] The tumor volume and body weight were measured on day 0, day 4, day 8, day 12, day 16, day 20, day 24, day 28, day 32, and day 36.\nAfter subcutaneous tumorigenesis of BxPC3, (1) PBS, (2) control ADC at 10 mg/kg, and (3) GPC1-ADC at 1 mg/kg, 3 mg/kg, and 10 mg/kg were administered once into the tail vein. The tumor was extracted after 24 hours. After deparaffinization of a section of a paraffin embedded tissue, the slice was dehydrated with alcohol.\nImmunohistochemical staining on Phospho-Histon H3 (Ser10) was performed using an anti-Phospho-Histon H3 (Ser10) antibody (Cell Signaling Technology: #9701) and ChemMate Envision kit HRP 500T (Dako: K5007)."}, "[4]": {"conditions": "any dosage tested (1, 3, 10 mg/kg)"}}, "data": [{"molecule": "B1", "values": [{"measurement": "activity compared to MIL-38", "setting": "DU145 cells; DU145 cells", "value": 37, "unit": "fold"}, {"measurement": "growth suppressing effect against DU145 cells", "setting": "DU145 cells; primary antibody plus MMAF secondary antibody 2 μg/ml, 3 days", "value": "high growth suppressing effect"}, {"measurement": "EC50 values against DU145 cells", "setting": "DU145 cells; primary antibody plus MMAF secondary antibody, 3 days", "value": "excellent EC50 values"}, {"measurement": "toxicity (blood cell count, biochemical blood analysis)", "setting": "[1]", "value": "Toxicity was not found"}, {"measurement": "antitumor effect on TE8", "setting": "TE8 cells", "value": "particularly potent antitumor effect"}, {"measurement": "antitumor effect in vitro", "setting": "[2]", "value": "not observed against any cell strain"}]}, {"molecule": "B2", "values": [{"measurement": "effect of suppressing cell growth", "setting": "HeLa cells", "value": "exhibits an effect of suppressing cell growth"}, {"measurement": "antitumor effect (tumor volume, tumor weight day 32)", "setting": "ME180 cell strain; 1 mg/kg iv day 0, 4, 8, 12", "value": "slight antitumor effect"}, {"measurement": "antitumor effect (tumor volume, tumor weight day 32)", "setting": "ME180 cell strain; 3 mg/kg iv day 0, 4, 8, 12", "value": "slight antitumor effect"}, {"measurement": "antitumor effect (tumor volume, tumor weight day 32)", "setting": "ME180 cell strain; 10 mg/kg iv day 0, 4, 8, 12", "value": "significant antitumor effect"}, {"measurement": "tumor volume", "setting": "ME180 cell strain; 10 mg/kg iv day 0, 4, 8, 12", "value": "tumor volume was significantly reduced"}, {"measurement": "change in the body weight", "setting": "ME180 cell strain; [4]", "value": "significant change in the body weight was not observed"}, {"measurement": "G2/M phase arrest in tumor tissue (Phospho-Histon H3 (Ser10) staining)", "setting": "ME180 cell strain; single tail vein dose 10 mg/kg, tumor extracted after 24 hours", "value": "resulted in G2/M phase arrest"}, {"measurement": "effect of suppressing cell growth", "setting": "T3M4 cells", "value": "exhibits an effect of suppressing cell growth"}, {"measurement": "effect of suppressing cell growth", "setting": "[3]", "value": "exhibits an effect of suppressing cell growth"}, {"measurement": "tumor volume", "setting": "BxPC3 cell strain; 3 mg/kg iv day 0, 4, 8, 12", "value": "tumor volume was significantly reduced"}, {"measurement": "tumor volume", "setting": "BxPC3 cell strain; 10 mg/kg iv day 0, 4, 8, 12", "value": "tumor volume was significantly reduced"}, {"measurement": "change in the body weight", "setting": "BxPC3 cell strain; [4]", "value": "significant change in the body weight was not observed"}, {"measurement": "antitumor effect (tumor volume, tumor weight day 36)", "setting": "BxPC3 cell strain; iv day 0, 4, 8, 12, anti-GPC1 ADC 1, 3, 10 mg/kg (all groups), control ADC 10 mg/kg", "value": "significant antitumor effect"}, {"measurement": "G2/M phase arrest in tumor tissue (Phospho-Histon H3 (Ser10) staining)", "setting": "BxPC3 cell strain; single tail vein dose 1, 3, 10 mg/kg, tumor extracted after 24 hours", "value": "resulted in G2/M phase arrest"}]}]}
